Seven substances from PMC11661604 can be followed below.

The test has as its target native Semliki Forest virus (SFV) virion (Semliki Forest virus). The experiment in a line: SPR; Biacore 8K; purified SFV virions amine-coupled on a CM5 chip (more than 2,500 RU); Fc fusions flowed in gradient concentrations at 30 μL/min in PBS with 0.05% Tween-20, pH 7.4, 25°C; 1:1 binding model. (In general: In SPR one partner is held on a chip, and binding of the other changes the refractive index at the surface.)
For “LA3-Fc (from UniProt P98155-1 110-152) (Fc fusion)”, the equilibrium dissociation constant (Kd) stood at 903 nM.
The same measure, in the same setting: for “LA3-5-Fc (from UniProt P98155-1 110-237) (Fc fusion)” the value was 438 nM.
For “LA1-3-Fc (from UniProt P98155-1 31-152) (Fc fusion)”, the increase in KD compared to LA2-3 was 100 nM.
The substance “VLDLRLBD-Fc (ligand-binding domain of human VLDLR, LA1-8, Fc fusion) (from UniProt P98155-1 31-355)” showed a Kd of 252 nM.
In the case of “LA2-5-Fc (from UniProt P98155-1 69-237) (Fc fusion)”, the Kd amounted to 269 nM.
In the case of “LA3-4-Fc (from UniProt P98155-1 110-191) (Fc fusion)”, the Kd came out at 1480 nM.
Still for that read-out and setting: the value for “LA2-3-Fc (from UniProt P98155-1 69-152) (Fc fusion)” was 445 nM.

For orientation: Kd means the concentration at which binding is half-saturated. A lower Kd goes with higher affinity.
